From the nanobody polyreactivity screen of Harvey et al. (2022)

test: yeast display, Sf9 membrane polyspecificity reagent, FACS + sequencing; frameworks hold sequencing errors
How it was run: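 A synthetic nanobody library was expressed on Saccharomyces cerevisiae BJ5465 by galactose induction for 36–48 hours. The library was stained for 1 hour at 4 °C with 10% biotinylated, detergent-solubilized Sf9 membrane reagent and enriched with streptavidin microbeads before FACS. Low and high (top ~1%) gates were set on anti-HA fluorescence for expression and streptavidin fluorescence for reagent binding, and each polyreactivity label reflects the gate of origin.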

Sequence	polyreactivity (PSR sort gate)
QLQLVESGACLVQAGGSLRLSCAASGRIFTSYSMGWYRHAPGKEREMVAAINRGADTYYADSVKGRFTISRDNAKNTVYLQMNSVKPEDNAVYYCNAADAVSDYPDFQIYDYWGQGTQVTVSS	low polyreactivity
QLQLVESGAGRVQAGGSLRLRCAAAGSILRDNAMVWYRQAPWKEREFVADIRGSDDTTYYADSVKGRFTISRDNGKNSVYLQMNSLKPEDTAVYYSNRDDAWQEYDYWGQGTQVTVSS	low polyreactivity
QLQLVESGGGLDQAGGSLRLSCAASGFTFVSYAMGWYRQAPGKERELVAVISYRAGSTYYADSVKGRFTISRDNAKNTVYLQMYSLKPEDTAVYYCATDRYSRRNDYWGQGTQVTVSS	high polyreactivity
QLQLVESGGGLFQAGGSLRISCAPSGRIFKLNAMGWYRQAPGKEMELVAAINSGTRTYYADSVKGRFTISSYNAKNTVYLQLNSLKPEDTAVYYCAAEGVWWYSRYDYWGQGTQVTVSS	high polyreactivity
QLQLVESGGGLVKAGGSLRLSCAASGSTFGGNAMGWYRQAPGKERELVASISSSGGRTYYADSVKGRFTISRDNAKNTVYLQMNSLTPEDTAVYYCARRYYYQYRYDYWGQGTQVTVSS	high polyreactivity
QLQLVESGGGLVPAGGSLRLSCAASGIIFTSNTMGWYRQAPGKEREFVASINWNGSSTYADSVKGRFTISRDNGKNTVYLEMNSLKPEDTAVYYCNADYISNSVQFSLYDYWGQGTQVTVSS	low polyreactivity
QLQLVESGGGLVQAGGRLRLSCAASGRTFYDYAMGWYRQSPGKERELVAAIDNGGSTYYADSVKGRFTISRDNAKNTVYLQKNSLKPEDTAVYYCNADGATVWSLEYCGQGTQVTVSS	low polyreactivity
QLQLVESGGGLVQAGGRLRLTCAASGSIFFGNVMGLYIQAPGKERELVAVISWSGGTTYYADSVKGRFTISRDNAKNTVYLQMNSLKTEDTAVYYCNARYLRRGDYWGQGTQVTVSS	low polyreactivity
QLQLVESGGGLVQAGGSLRISCAASGFIFNGYAMGWSRQAPGKERELVAAITADVGDTYYADSVKGRFTLSRDNAKYTVYLQLNSLKPDDPAVYYCAADQAEWLDPDDYWGQGTQVTVSS	low polyreactivity
QLQLVESGGGLVQAGGSLRLRCAASGNTFYQYAMGWYIQAPGQQREMVAAISSGGRTNYADSVKGRFTISRDNAKNNVYLQMNSLKPEDTAVYYFAADVGYFKSDYWGQGTQVTVSS	low polyreactivity
QLQLVESGGGLVQAGGSLRLSCAASGFTFRCNAMGWYRQAPGKEMELVAGITSGGSTNYADSVKGRFTISRDNAKNTVYLQMNSLKPEDTAVYYCNAAWYRWKQRYDYWGQGTQVTVSS	low polyreactivity
QLQLVESGGGLVQAGGSLRLSCAASGGIFPYYAMGWYRQAPGKEMELVAAISRSGGITYYADSVKGRFTISRDNAKNTVYLQMNSLKPEDTAVYYCAALSRWRYKRYDYWGQGTQVTVSS	high polyreactivity
QLQLVESGGGLVQAGGSLRLSCAASGIIFRWYAMGFYRQAPGKERELVAAITSSGGRTYYADSVKGRFTISRDNAKNTVYLPMNILKPEDTAVYYCAASYYIVGCDPYDYWGQGTQVTVSS	high polyreactivity
QLQLVESGGGLVQAGGSLRLSCAASGITFGANTMGWYRQAPGTERELVAAITISGGITHYADSVKGRFTISRDNAKNTVYLQMNSLKPEDTAVYYCAAGAYWRLYPYRQRNGGRMYYWGQGTQVTVSS	low polyreactivity
QLQLVESGGGLVQAGGSLRLSCAASGITFYVYAMGCYRQAPGKERELVAAISTSGGSTYYADSVKGRFTISRDNAKNTVYFQMNSLKPEDTAVYYCAAEELRYGLYEYDYWGQGTQVTVSS	high polyreactivity
QLQLVESGGGLVQAGGSLRLSCAASGLILPYYAMGWYRQAPGKERALVAAISRTGGRTSYADSVKGRFTISRDNAKNTVYLQMNSLKPEDTAVYYCAARYGRYYGYNYWGQGTQVTVSS	high polyreactivity
QLQLVESGGGLVQAGGSLRLSCAASGLILYSYAMGRYRQAPGKERELVADISSGGITNYADSVKGRFTISRDNAKNTVYLQMNSLKPADTAVNYCAADTRPVNYILYEYWGQGTQVTVSS	low polyreactivity
QLQLVESGGGLVQAGGSLRLSCAASGLTFSYYAMGSYRQAPGKERELVAAITSSGGNTYYADSVKGRFTISRDNANNTVYLQMNSMKPEDTAVYYCAAERYQSFCYGKRPRRPRYDYWGLGTQVTVSS	high polyreactivity
QLQLVESGGGLVQAGGSLRLSCAASGLTFYVYAMGWYRQAPCKERELVAAISSGGRTYYADSVKGRFTISRDNAKNTVYLQMNSLKPEDTAVYYCAAVRHRNYGYWGQGTQVTVSS	high polyreactivity
QLQLVESGGGLVQAGGSLRLSCAASGLTYEGYAMGWYRQAPGKERELVAAITGSGSTTYYADSVKGRFTISRDNAKNTVYLQMNSLKPEDSAVYYCAADVSYKLYWGQGTQVTVSS	low polyreactivity
QLQLVESGGGLVQAGGSLRLSCAASGRIFRRYTMRSYRQAPGKERELVAAITWKGGRTSYADSVKGRFTISRDNANNTVYLQMNSLKPQDTAVYYCAAECPSRYHTFEFWGQGTQVTVSS	high polyreactivity
QLQLVESGGGLVQAGGSLRLSCAASGRIFTGNAMGWYRQAPGKERELVAAISYSGGSTYYADSVKGRFTISRDNAKNTVYLQMNSLKPEDTAVYYCAAAGRYLRYGYWGQGTQVTVSS	high polyreactivity

Sequence	polyreactivity (PSR sort gate)
QLQLVESGGGLVQAGGSLRLSCAASGRIFWPNALGWYRQAPGKEREFVAAIRWSSDRTYYADSVKGRFTISRDNAKNTVYLQRNSLKPEDTAVYYCNAVRYVISKYDYWGQGTQVTVSS	high polyreactivity
QLQLVESGGGLVQAGGSLRLSCAASGRNFGYNAMGWYRPAPGKERELVAVINIDGSTNYADSVKGRFTISRDNAKNTVYLQLNSLNPEDTAVYYCAARYWKSYRNGGFFGFTYYYWGQGTQVTVSS	high polyreactivity
QLQLVESGGGLVQAGGSLRLSCAASGRTFIHYAMGWYRQAPGKERELVAAISDDASSTYYADSVKGRFTISRDNAKNTVYLQMNSLKPEDTAVYYCNVELAKVGGVEYDYWGQGTLVTVSS	low polyreactivity
QLQLVESGGGLVQAGGSLRLSCAASGSIFFSYAMGWYRQAPGKERELVAAIDYSGGGTYYADSVKGRFTISRDNAKNTVYLQMNSLKPEDTAVYYCNSDTEVWADTFISYRALNYWGQGTQVTVSS	low polyreactivity
QLQLVESGGGLVQAGGSLRLSCAASGSIFHRYAMGWYRQAPGKEREFVAAISGRGGSTYYADSVKGRITISRDNAKNTVYLQMNSLKPEDTAVYYCAADSSLFYGRPRYYYWGQGTQVTVSS	high polyreactivity
QLQLVESGGGLVQAGGSLRLSCAASGSIFNQYAMGWYRQAPGKERELVAAISSGSTYYADSVKGRFIISRDNAKNTVYLQMFSLKPEDTAVYYCAAGRNRRSSGIYVSKYWGQGTQETVSS	high polyreactivity
QLQLVESGGGLVQAGGSLRLSCAASGSIFPDYAMGWYRPAPAKERELVAAITWRDDSTYYADSVKGRFTISRDNAKNTVYLQMNSLKPEDTAVYYCNASALDPLYAKDDYWGQGTQVTVSS	low polyreactivity
QLQLVESGGGLVQAGGSLRLSCAASGSILYIKTMGWYRQAPGKERELVAAITYSGGSTYYADAVKGRFTISRDNAKNTVYLQMTSLKPEDTAVYYCAADGYYGGFNYWGQGTQVTVSS	low polyreactivity
QLQLVESGGGLVQAGGSLRLSCAASGSIYWRNAMGWYRQAPGKERELVAAITSGGSTYYADSVKGRFTISRDNAKNTVYLQMNSLKPEDTAVYYCAAGYSYRYGYWGQGTQVTVSS	low polyreactivity
QLQLVESGGGLVQAGGSLRLSCAASGSTFLYNAMGWYRQAPGKERELVAAITVSDGSTYYADSVKGRFTISRDNAKNTVYLKMNSLKPVDTAVYYCNADFPRKTRYEYWGQGTQVTVSS	low polyreactivity
QLQLVESGGGLVQAGGSLRLSCAASGSTFPTNAMGWYRQAPGKERELVARISWDGGRTNYADSVKGRFTISRDNAKNTVYLQMNSLKPEDTAVYYCAAEKQHFGPYGYWGQGTQVTVSS	low polyreactivity
QLQLVESGGGLVQAGGSLRLSCAASGSTFREYAMGWYRQAPGKERELVAAISSGDSTNYADSVKGRFTISRDNAKNTVYLQMNSLKPEDTSVYYCAADAQGAAAVQNDYWGQGTQVTVSS	low polyreactivity
QLQLVESGGGLVQAGGSLRLSCAASGSTFRYNAMGWYRQAPGKEREFVAAITSGGGSTYYADSVKGRFTISRDNAKNTVYLQMNSLKPEDTAVYYCAKYTSSRRNTWYYYWGQGTQVTVSS	high polyreactivity
QLQLVESGGGLVQAGGSLRLSCAASGSTISGYAMGWYRQAPGKARELVARINSGGGRTYYADSVKGRFTISRDNAKNTVYLQMNSLKREDTEVYYFAAYSKPFPYVSTIRYYYWGQGTQVTVSS	high polyreactivity
QLQLVESGGGLVQAGGSLRLSCAASGSTLDRYVMGWYRPAPGKERELVAAISRNGGSTYYADSVKGRFTISRDIAKNTVYLQMNSLKPEDTAVYYCAAYIYQSPTRGGGYWGQGTQVTVSS	high polyreactivity
QLQLVESGGGLVQAGGSLRLSCAASGSTYGPYAMGWYRQAPGKERELVSAITISGDSTNYADSVKGRFTISRDNAKNTVYLQMNSLKPEDTAVYYCAAAYYWLQSWYDYWGQGTQVTVSS	low polyreactivity
QLQLVESGGGLVQAGGSLRLSCAASGYMGWYRQAPGKERELVATISGSGGSTYYADSVKGRFTISRDNAKNTVYLQMNSLKPEDTAVYYCTTEIWGVNRSGYDYWGQGTQVTVSS	low polyreactivity
QLQLVESGGGLVQAGGSLRLSCAASGYTFKTNDMGWYRQAPGKEREFVAAIDSGGNTYYADSVKGRFTISRDNAKNTVYLQMNSLKPEDTAVYYCAAYRDYQNDYWGQGTQVTVSS	low polyreactivity
QLQLVESGGGLVQAGGSLRLSCAPSGRIFPSYAMGWYRQAPGKERELVAPISWSGVSTYADSVKGRFTISRDNAKNTVYLQMNSVKPEDTAVYFCAAQYTLVIFPYGGYVIEYEYWGQGTQVTVSS	low polyreactivity
QLQLVESGGGLVQAGGSLRLSCAPTGRTFYRNAMGCKRPAPGKESELVASIRRNGGSTYYADSVKGRFTITRDNAKNTVYLPMNSMKPEDTAVYYCAAYFSYAGPKGAVYGMDYWGQGTQVTVSS	high polyreactivity
QLQLVESGGGLVQAGGSLRLSCASSGIIFRWYTIGWSRQAPGKERELDAAITGRGGSTFYADSVKGRFTISRDNAKNTVYVQMNSLKPEDTAFYYCAAQYSYPTPYRTYEYDYWGQGTQVTVSS	high polyreactivity
